Results taken from the supplement of paper PMC9876800.

System: peptide library, one residue held at a place counted from the S/T acceptor
Test: relative phosphorylation of the sub-library (ratio to the mean residue at this position); higher = residue favoured
How it was run: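 Relative sub-library phosphorylation is a ratio to the mean residue at the same position. Purified recombinant kinases were incubated under kinase-specific conditions with biotinylated degenerate peptide sub-libraries, each fixing one residue at one position around a central Ser/Thr, using 50 μM peptide and 50 μM ATP spiked with γ-32P-ATP for 90 min. Spots captured on streptavidin membranes were phosphorimaged and quantified by densitometry.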

Chain of NEK9, construct: Full length (D347-732), human (Q8TD19 whole entry, looked up): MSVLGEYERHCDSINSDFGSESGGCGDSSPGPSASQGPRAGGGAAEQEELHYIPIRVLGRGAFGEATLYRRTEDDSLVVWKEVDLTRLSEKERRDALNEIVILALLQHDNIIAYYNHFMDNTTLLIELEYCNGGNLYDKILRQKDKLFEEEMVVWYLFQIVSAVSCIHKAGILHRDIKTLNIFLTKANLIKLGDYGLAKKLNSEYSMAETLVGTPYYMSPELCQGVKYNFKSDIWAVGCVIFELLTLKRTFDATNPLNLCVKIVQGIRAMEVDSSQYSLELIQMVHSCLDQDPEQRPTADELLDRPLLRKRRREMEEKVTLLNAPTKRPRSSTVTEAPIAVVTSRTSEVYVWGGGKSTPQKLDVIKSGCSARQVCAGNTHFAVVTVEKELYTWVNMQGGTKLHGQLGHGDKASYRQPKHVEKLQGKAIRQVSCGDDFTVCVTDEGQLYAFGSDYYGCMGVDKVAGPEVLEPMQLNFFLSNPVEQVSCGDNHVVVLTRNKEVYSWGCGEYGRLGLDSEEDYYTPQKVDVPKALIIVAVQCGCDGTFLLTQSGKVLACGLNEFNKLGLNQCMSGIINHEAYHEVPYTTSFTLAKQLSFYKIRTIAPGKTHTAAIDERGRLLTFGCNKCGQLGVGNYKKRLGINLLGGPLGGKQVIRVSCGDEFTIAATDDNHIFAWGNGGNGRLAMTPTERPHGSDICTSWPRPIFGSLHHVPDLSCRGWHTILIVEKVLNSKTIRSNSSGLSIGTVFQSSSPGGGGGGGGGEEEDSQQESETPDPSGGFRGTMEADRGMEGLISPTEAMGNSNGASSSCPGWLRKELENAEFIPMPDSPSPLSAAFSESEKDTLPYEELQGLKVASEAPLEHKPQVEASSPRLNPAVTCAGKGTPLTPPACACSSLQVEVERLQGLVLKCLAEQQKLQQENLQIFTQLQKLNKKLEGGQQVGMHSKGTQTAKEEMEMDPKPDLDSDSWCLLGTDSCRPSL
Chain of PDPK1, construct: Full length, human (O15530 whole entry, looked up): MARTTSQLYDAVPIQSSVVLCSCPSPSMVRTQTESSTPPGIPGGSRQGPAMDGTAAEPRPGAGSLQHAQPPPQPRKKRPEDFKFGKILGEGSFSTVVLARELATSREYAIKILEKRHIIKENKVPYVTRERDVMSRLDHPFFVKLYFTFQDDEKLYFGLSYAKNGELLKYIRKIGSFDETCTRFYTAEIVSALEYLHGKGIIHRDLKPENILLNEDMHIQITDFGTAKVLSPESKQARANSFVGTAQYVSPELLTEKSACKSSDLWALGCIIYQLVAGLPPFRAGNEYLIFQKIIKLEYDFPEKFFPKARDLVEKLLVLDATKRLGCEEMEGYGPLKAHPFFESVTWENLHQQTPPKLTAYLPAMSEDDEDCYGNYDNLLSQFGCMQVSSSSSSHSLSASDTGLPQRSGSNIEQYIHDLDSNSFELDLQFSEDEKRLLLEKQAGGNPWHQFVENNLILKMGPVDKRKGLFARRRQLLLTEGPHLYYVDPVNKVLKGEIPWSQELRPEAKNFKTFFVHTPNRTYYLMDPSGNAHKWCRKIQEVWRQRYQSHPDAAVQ
Chain of STK33, construct: Full length, human (Q9BYT3 whole entry, looked up): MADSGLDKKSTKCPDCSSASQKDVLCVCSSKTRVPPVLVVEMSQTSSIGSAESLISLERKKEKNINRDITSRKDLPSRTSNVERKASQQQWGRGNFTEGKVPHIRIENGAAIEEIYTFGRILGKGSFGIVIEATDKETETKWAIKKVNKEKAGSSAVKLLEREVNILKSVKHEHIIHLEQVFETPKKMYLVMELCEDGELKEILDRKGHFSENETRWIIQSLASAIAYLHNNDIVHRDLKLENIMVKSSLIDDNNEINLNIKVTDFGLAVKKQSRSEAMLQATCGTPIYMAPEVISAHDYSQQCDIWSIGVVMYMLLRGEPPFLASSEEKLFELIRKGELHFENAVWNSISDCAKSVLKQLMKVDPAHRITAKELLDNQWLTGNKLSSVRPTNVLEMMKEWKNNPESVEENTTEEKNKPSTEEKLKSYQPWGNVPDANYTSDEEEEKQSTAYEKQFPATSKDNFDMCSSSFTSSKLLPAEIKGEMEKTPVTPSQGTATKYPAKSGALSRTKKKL

STK33, construct: Full length, human (from UniProt Q9BYT3)
relative phosphorylation
Settings | at +1 | at +2 | at +3 | at +4 | at -1 | at -2 | at -3 | at -4 | at -5
A fixed | 0.409 | 0.63 | 0.576 | 0.702 | 0.899 | 0.84 | 0.905 | 1.03 | 1.17
D fixed | 0.151 | 0.26 | 0.433 | 0.754 | 0.393 | 0.433 | 0.344 | 0.723 | 0.731
E fixed | 0.158 | 0.243 | 0.451 | 0.951 | 0.572 | 0.411 | 0.355 | 0.681 | 0.709
F fixed | 1.25 | 1.85 | 1.22 | 0.842 | 0.653 | 1.95 | 1.53 | 0.855 | 0.849
G fixed | 0.327 | 0.41 | 0.743 | 1.03 | 0.676 | 0.987 | 1.08 | 1.23 | 1.43
H fixed | 0.745 | 1.82 | 1.31 | 1.12 | 0.933 | 1.39 | 1.07 | 1.19 | 1.25
I fixed | 1.33 | 0.956 | 0.804 | 0.992 | 0.574 | 0.549 | 0.683 | 0.661 | 0.6
K fixed | 2.18 | 0.815 | 2.01 | 1.41 | 2.59 | 0.826 | 0.921 | 1.39 | 1.72
L fixed | 0.893 | 0.654 | 0.657 | 0.801 | 0.812 | 0.865 | 1.62 | 0.77 | 0.603
M fixed | 1.36 | 0.871 | 0.756 | 0.914 | 1.14 | 0.99 | 1.42 | 0.836 | 0.653
N fixed | 0.578 | 0.59 | 0.655 | 0.917 | 0.978 | 1.32 | 0.724 | 1.02 | 1.11
P fixed | 0.217 | 0.394 | 0.564 | 1.38 | 0.306 | 0.43 | 0.915 | 0.924 | 1.12
Q fixed | 1.23 | 0.53 | 0.661 | 0.994 | 1.33 | 0.786 | 0.836 | 0.823 | 0.856
R fixed | 3.13 | 1.16 | 2.98 | 1.28 | 2.9 | 1.34 | 1.66 | 1.42 | 1.5
V fixed | 1.29 | 0.796 | 0.721 | 0.835 | 0.747 | 0.568 | 0.555 | 0.585 | 0.613
W fixed | 0.768 | 1.8 | 1.23 | 1.21 | 0.557 | 1.73 | 1.23 | 1.98 | 1.22
Y fixed | 0.988 | 3.23 | 1.24 | 0.882 | 0.943 | 1.59 | 1.16 | 0.886 | 0.869
pThr fixed | 0.683 | 0.937 | 1.23 | 1.3 | 0.439 | 0.702 | 1.14 | 1.05 | 1.24
pTyr fixed | 0.677 | 11.7 | 1.91 | 1.8 | 0.918 | 0.887 | 1.02 | 0.779 | 1.13

MAP2K1, construct: Full length, human (from UniProt Q02750)
relative phosphorylation
Settings | at +1 | at +2 | at +3 | at +4 | at -1 | at -2 | at -3 | at -4 | at -5
A fixed | 0.7 | 0.969 | 0.94 | 0.939 | 1.03 | 0.942 | 1.02 | 0.999 | 1.03
D fixed | 1.55 | 0.835 | 1.02 | 1 | 0.876 | 0.955 | 1.02 | 1.13 | 1.08
E fixed | 0.866 | 0.696 | 0.898 | 0.911 | 0.722 | 0.931 | 1 | 1.2 | 0.95
F fixed | 1.18 | 0.746 | 0.992 | 0.92 | 0.933 | 1.72 | 1.04 | 1.04 | 1.81
G fixed | 0.753 | 0.712 | 1.11 | 1.07 | 1.35 | 0.808 | 0.725 | 0.902 | 0.816
H fixed | 0.877 | 3.48 | 1.29 | 0.998 | 1.02 | 2.03 | 1.07 | 1.11 | 0.992
I fixed | 1.56 | 0.839 | 0.852 | 0.976 | 0.77 | 0.695 | 0.998 | 0.961 | 0.94
K fixed | 0.629 | 0.84 | 0.923 | 0.885 | 1.07 | 0.768 | 1.09 | 0.861 | 0.925
L fixed | 1.18 | 0.718 | 0.947 | 1.05 | 1.32 | 0.787 | 1.02 | 0.891 | 0.943
M fixed | 1.42 | 0.924 | 0.909 | 0.949 | 1.14 | 1.02 | 1.02 | 1.06 | 0.909
N fixed | 0.738 | 0.738 | 0.854 | 0.83 | 0.959 | 0.994 | 0.781 | 0.974 | 0.882
P fixed | 0.71 | 0.775 | 0.969 | 1.04 | 0.768 | 0.615 | 0.707 | 0.806 | 0.935
Q fixed | 0.743 | 0.79 | 0.854 | 0.916 | 0.967 | 0.834 | 0.92 | 0.896 | 0.886
R fixed | 0.616 | 0.85 | 0.916 | 0.875 | 1.05 | 0.955 | 1.36 | 0.922 | 0.907
V fixed | 1.21 | 0.913 | 0.861 | 0.895 | 0.848 | 0.67 | 0.94 | 1.06 | 0.978
W fixed | 1.13 | 0.87 | 1.37 | 1.5 | 1.02 | 1.13 | 1.22 | 1.11 | 1.01
Y fixed | 1.13 | 1.31 | 1.29 | 1.25 | 1.17 | 1.14 | 1.06 | 1.09 | 1.01
pThr fixed | 1.45 | 1.08 | 0.988 | 1.02 | 0.87 | 0.824 | 1.7 | 1.14 | 0.922
pTyr fixed | 1.11 | 0.882 | 1.11 | 0.958 | 0.875 | 0.763 | 0.869 | 1.04 | 0.873

NEK9, construct: Full length (D347-732), human (from UniProt Q8TD19)
relative phosphorylation
Settings | at +1 | at +2 | at +3 | at +4 | at -1 | at -2 | at -3 | at -4 | at -5
A fixed | 0.751 | 1.08 | 1.02 | 1.03 | 1 | 1.33 | 1.05 | 1.11 | 1.19
D fixed | 0.268 | 0.44 | 0.594 | 0.754 | 0.889 | 1.27 | 0.574 | 1.06 | 1.04
E fixed | 0.256 | 0.294 | 0.552 | 0.851 | 0.854 | 0.851 | 0.564 | 0.889 | 0.918
F fixed | 1.37 | 0.606 | 1.04 | 0.775 | 0.843 | 1 | 1.43 | 0.9 | 1.07
G fixed | 0.844 | 1.04 | 1.22 | 1.43 | 0.819 | 1.28 | 1.22 | 1.3 | 1.3
H fixed | 0.912 | 1.42 | 1.14 | 1.18 | 1.21 | 1.08 | 0.953 | 1.09 | 1.02
I fixed | 1.49 | 0.842 | 0.95 | 0.744 | 0.759 | 0.584 | 0.488 | 0.78 | 0.755
K fixed | 0.951 | 1.69 | 1.12 | 1.25 | 1.12 | 0.543 | 0.73 | 1.01 | 1.01
L fixed | 1.27 | 0.611 | 1.01 | 0.839 | 1.28 | 1.21 | 1.7 | 0.96 | 0.824
M fixed | 1.54 | 0.782 | 0.956 | 0.899 | 1.39 | 1.53 | 2.32 | 1.12 | 0.953
N fixed | 0.749 | 1.19 | 0.97 | 1.06 | 1.3 | 1.59 | 0.944 | 0.928 | 1.04
P fixed | 0.209 | 0.57 | 0.921 | 1.12 | 0.426 | 0.667 | 0.937 | 1.12 | 0.991
Q fixed | 1.14 | 0.892 | 0.943 | 1.01 | 1.12 | 0.996 | 0.808 | 0.85 | 0.764
R fixed | 1.42 | 2.78 | 1.2 | 1.38 | 1.24 | 0.591 | 0.748 | 0.879 | 1.06
V fixed | 1.3 | 0.894 | 0.887 | 0.696 | 0.688 | 0.461 | 0.407 | 0.688 | 0.895
W fixed | 1.14 | 0.755 | 1.23 | 1.13 | 0.941 | 1.02 | 1.14 | 1.36 | 1.22
Y fixed | 1.39 | 1.12 | 1.24 | 0.855 | 1.12 | 0.996 | 1 | 0.963 | 0.936
pThr fixed | 0.614 | 0.45 | 0.557 | 0.85 | 0.364 | 0.573 | 0.816 | 0.901 | 0.836
pTyr fixed | 0.517 | 0.399 | 0.599 | 0.722 | 1.01 | 0.91 | 0.826 | 0.787 | 0.886

PDPK1, construct: Full length, human (from UniProt O15530)
relative phosphorylation
Settings | at +1 | at +2 | at +3 | at +4 | at -1 | at -2 | at -3 | at -4 | at -5
A fixed | 0.609 | 1.18 | 0.927 | 1.02 | 0.812 | 1.48 | 1 | 1.13 | 1.12
D fixed | 0.37 | 0.618 | 0.647 | 0.802 | 0.519 | 0.523 | 0.571 | 0.935 | 1.25
E fixed | 0.402 | 0.537 | 0.665 | 0.815 | 0.518 | 0.561 | 0.615 | 0.927 | 1.04
F fixed | 4.59 | 1.23 | 1.31 | 0.991 | 1.22 | 1.33 | 0.794 | 0.958 | 0.875
G fixed | 0.638 | 0.747 | 1.19 | 1.13 | 1.43 | 1.16 | 1.04 | 1.27 | 1.21
H fixed | 0.602 | 1.26 | 1.04 | 1.01 | 0.954 | 1 | 0.863 | 0.982 | 0.919
I fixed | 1.15 | 1.16 | 1.07 | 0.955 | 0.673 | 0.733 | 0.789 | 0.909 | 0.973
K fixed | 0.798 | 0.985 | 0.977 | 1.01 | 1.32 | 1.18 | 1.18 | 1.06 | 0.956
L fixed | 1.16 | 1.01 | 0.967 | 1 | 0.958 | 0.974 | 0.779 | 0.863 | 0.826
M fixed | 1.89 | 1.13 | 1.01 | 1.02 | 1.22 | 0.866 | 0.775 | 0.846 | 0.859
N fixed | 0.515 | 0.759 | 0.822 | 0.822 | 1.11 | 0.931 | 0.754 | 0.866 | 0.864
P fixed | 0.556 | 0.755 | 0.774 | 1.39 | 1.03 | 0.834 | 1 | 1.11 | 1.14
Q fixed | 0.622 | 0.722 | 0.77 | 0.871 | 0.847 | 0.94 | 0.843 | 0.89 | 0.788
R fixed | 0.875 | 1.18 | 1.29 | 1.21 | 1.61 | 1.49 | 3.72 | 1.18 | 1.09
V fixed | 0.664 | 1.21 | 1.02 | 0.868 | 0.661 | 0.71 | 0.762 | 1.07 | 1.19
W fixed | 0.709 | 0.98 | 1.28 | 1.13 | 0.873 | 0.987 | 0.749 | 0.994 | 0.919
Y fixed | 0.848 | 1.54 | 1.25 | 0.947 | 1.24 | 1.3 | 0.761 | 1.02 | 0.99
pThr fixed | 0.497 | 0.664 | 0.71 | 0.809 | 0.604 | 0.738 | 0.854 | 1.12 | 1.62
pTyr fixed | 0.432 | 0.616 | 0.903 | 0.852 | 0.738 | 0.821 | 1.13 | 2.5 | 2.94
